Key:
[1] = target: T1, TGF-β1 (UniProt P01137 279-390, limits assumed); experiment: ELISA, TGF-β1 coated at 2 µg/ml, detection with goat anti-human Fc-HRP
Description: (§1) (11) Reading: The absorbance values were read at 450/655 nm respectively using the MD microplate reader. The concentration of the sample to be tested was used as the abscissa and the absorbance value as the ordinate to plot making a 4-PL curve, and the software automatically gave the EC50 value. (see table 7).

[2] = target: T1, TGF-β1; experiment: ELISA on coated TGF-β1, ratio of EC50 values against TGF-β-R-His
Description: as §1

[3] = target: T1, TGF-β1; experiment: ELISA, TGF-β1 coated at 2 µg/ml, detection with anti-His-HRP
Description: as §1

[4] = target: VEGF (UniProt P15692-4 27-191, limits assumed); experiment: ELISA, VEGF coated at 1 µg/ml, detection with anti-His-HRP
Description: as §1

[5] = target: T2, CTLA-4 Protein (UniProt P16410 36-161, limits assumed); experiment: ELISA, CTLA-4 Protein coated at 20 µg/ml, biotinylated sample, detection with streptavidin-HRP
T2 sequence (looked up): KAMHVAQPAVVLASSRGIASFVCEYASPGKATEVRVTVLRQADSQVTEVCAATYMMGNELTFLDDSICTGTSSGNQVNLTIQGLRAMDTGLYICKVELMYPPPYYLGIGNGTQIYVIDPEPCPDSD
Description: Hib-PDC sample well and CD80-His well: Streptavidin-HRP was diluted at 1:2000, and added at 100 μl/well. Then the plate was incubated at 37° C. for 1 h±10 min;
as §1

T1 sequence (P01137 279-390 limits assumed): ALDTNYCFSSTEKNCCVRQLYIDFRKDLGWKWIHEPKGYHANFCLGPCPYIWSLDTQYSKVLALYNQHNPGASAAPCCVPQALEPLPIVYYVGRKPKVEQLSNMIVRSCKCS
VEGF, sequence (P15692 other isoform, or with tags, fused parts or gaps limits assumed): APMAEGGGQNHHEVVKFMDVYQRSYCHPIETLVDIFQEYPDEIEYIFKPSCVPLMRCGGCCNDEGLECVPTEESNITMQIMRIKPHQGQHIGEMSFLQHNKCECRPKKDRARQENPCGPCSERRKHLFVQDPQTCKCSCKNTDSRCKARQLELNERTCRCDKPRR

B1: Hib-PLT (bispecific antibody)
heavy: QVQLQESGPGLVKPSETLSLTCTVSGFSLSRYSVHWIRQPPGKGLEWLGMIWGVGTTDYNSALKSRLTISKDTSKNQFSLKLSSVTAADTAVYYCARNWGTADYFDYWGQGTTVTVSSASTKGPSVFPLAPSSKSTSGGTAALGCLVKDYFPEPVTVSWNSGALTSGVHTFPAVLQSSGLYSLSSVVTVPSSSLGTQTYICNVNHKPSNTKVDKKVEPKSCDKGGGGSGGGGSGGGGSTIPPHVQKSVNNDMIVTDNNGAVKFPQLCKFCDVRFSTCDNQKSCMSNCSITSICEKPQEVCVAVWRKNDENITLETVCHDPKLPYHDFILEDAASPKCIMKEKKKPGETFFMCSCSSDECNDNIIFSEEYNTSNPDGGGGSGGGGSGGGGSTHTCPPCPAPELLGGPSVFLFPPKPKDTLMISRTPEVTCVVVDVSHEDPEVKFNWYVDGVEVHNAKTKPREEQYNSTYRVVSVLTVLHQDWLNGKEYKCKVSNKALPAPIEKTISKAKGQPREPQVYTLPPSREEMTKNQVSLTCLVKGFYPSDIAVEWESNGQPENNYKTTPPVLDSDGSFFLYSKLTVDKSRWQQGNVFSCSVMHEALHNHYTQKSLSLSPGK
light: DIVLTQSPASLAVSPGQRATITCRASKSVHTSGYSYMHWYQQKPGQPPKLLIYLASNLESGVPARFSGSGSGTDFTLTINPVEANDTANYYCQHSGELPYTFGGGTKVEIKRTVAAPSVFIFPPSDEQLKSGTASVVCLLNNFYPREAKVQWKVDNALQSGNSQESVTEQDSKDSTYSLSSTLTLSKADYEKHKVYACEVTHQGLSSPVTKSFNRGEC
notes: also called fusion protein Hib-PLT; Hibody bispecific fusion protein Hib-PLT
Question: With B1 as the binder, how does the EC50 [1] read?
Answer: 0.164 nM

Question: And the “fold better binding activity than TGF-β receptor monomer” value [2]?
Answer: ~70 times

B2: TGF-β-R-His (receptor)
chain: TIPPHVQKSVNNDMIVTDNNGAVKFPQLCKFCDVRFSTCDNQKSCMSNCSITSICEKPQEVCVAVWRKNDENITLETVCHDPKLPYHDFILEDAASPKCIMKEKKKPGETFFMCSCSSDECNDNIIFSEEYNTSNPD
notes: The His tag is set after the fragment only by default; also called TGF-β receptor monomer; His-tagged TGF-βRII extracellular region fragment; not shown: His tag
Question: How did the EC50 [3] turn out when B2 was run?
Answer: 11.6 nM

B3: VEGF-R-His (receptor)
chain: GRPFVEMYSEIPEIIHMTEGRELVIPCRVTSPNITVTLKKFPLDTLIPDGKRIIWDSRKGFIISNATYKEIGLLTCEATVNGHLYKTNYLTHRQTNTIIDVVLSPSHGIELSVGEKLVLNCTARTELNVGIDFNWEYPSSKHQHKKLVNRDLKTQSGSEMKKFLSTLTIDGVTRSDQGLYTCAASSGLMTKKNSTFVRVHEP
notes: The His tag is set after the fragment only by default; also called VEGF receptor monomer; not shown: His tag
Question: Which EC50 [4] does the source give for B3 here?
Answer: 2150 nM

B4: CD80-His (ligand)
chain: VIHVTKEVKEVATLSCGHNVSVEELAQTRIYWQKEKKMVLTMMSGDMNIWPEYKNRTIFDITNNLSIVILALRPSDEGTYECVVLKYEKDAFKREHLAEVTLSVKADFPTPSISDFEIPTSNIRRIICSTSGGFPEPHLSWLENGEELNAINTTVSQDPETELYAVSSKLDFNMTTNHSFMCLIKYGHLRVNQTFNWN
modifications: biotinylated sample in the assay (sites not given)
notes: The His tag is set after the fragment only by default; also called CD80 monomer; His-tagged CD80 fragment; not shown: His tag
Question: B4 was tested. Which EC50 [5] did it give?
Answer: 50.7 nM

— patent US20220204626A1 (REMEGEN, published 2022)
